Experimental findings from patent US20160009821A1 (TDW GROUP, published 2016) are described below.

This test addresses T1, Human argininosuccinate synthase (endogenous, in human tissues and human cancer cell lines) (human, UniProt P00966 1-412).
T1 construct: Endogenous protein in formalin-fixed, paraffin-embedded human tissue and cell line sections, with cytoplasmic staining; also called ASS; ASS1
T1 sequence: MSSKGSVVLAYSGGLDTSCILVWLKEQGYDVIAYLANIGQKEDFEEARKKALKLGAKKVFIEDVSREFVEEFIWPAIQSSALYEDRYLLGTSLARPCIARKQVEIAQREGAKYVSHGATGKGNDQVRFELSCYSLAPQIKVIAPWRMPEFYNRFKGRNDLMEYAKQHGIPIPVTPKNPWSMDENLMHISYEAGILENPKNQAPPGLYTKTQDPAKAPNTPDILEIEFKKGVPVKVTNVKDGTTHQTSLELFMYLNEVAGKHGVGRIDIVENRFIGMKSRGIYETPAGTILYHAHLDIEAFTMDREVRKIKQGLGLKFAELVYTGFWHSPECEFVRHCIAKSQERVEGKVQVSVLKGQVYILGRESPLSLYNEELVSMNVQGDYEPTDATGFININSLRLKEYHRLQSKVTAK
The experiment in a line: immunohistochemistry on formalin-fixed, paraffin-embedded clinical samples. The method, then: Formalin-fixed, paraffin-embedded specimens were sectioned at 4-5 μm and mounted on positively charged slides. Slides were air dried and then placed in a 60° C. oven for 60 minutes. Slides were stained using the Leica Bond III instrument. Paraffin was removed from the slides using the standard Leica Bond dewax protocol. The tissue was antigen retrieved with either Bond ER1 for 5 or Bond ER2 for 20 minutes.
Mouse anti-argininosuccinate synthase monoclonal antibody was applied to the slide at a concentration of 0.625 μg/mL and incubated for 15 min or 0.4 μg/mL and incubated for 30 minutes. The Leica Bond Polymer Refine Detection kit was used to visualize the staining—post primary for 8 minutes and polymer for 8 minutes. The slides were then treated with Peroxide Block for five minutes followed by Mixed DAB Refine for ten minutes. Stained sections were counterstained with hematoxylin for […] The slides were then dehydrated and cover-slipped.

B1: Mouse anti-argininosuccinate synthase monoclonal antibody used for immunohistochemistry in Example 2 (antibody, V domains shown)
VH: QIQLVQSGPELKKPGETVKISCKTSGYTFTDYSIHWVKQAPGKGLTWMGWINTETGEPTYADDFKGRFALSLETSASTAYLQLKNLRNEDTATYFCGSSYSYWGQGTLVTVSS
VL: DVVMTQTPLSLPVSLGDQASISCRSSQSLENSNGKTYLNWFLQKPGQSPQLLIYRVSNRFSGVPDRFSGSGSGTEFTLKISRVEAEDLGVYFCLQVKHVPWTFGGGTKLEIK
B1: the binding result is reported as “binds”.
